# Test results taken from patent US20260258153A1 (WISTAR INSTITUTE OF ANATOMY AND BIOLOGY, published 2026).
# Target: carbonic anhydrase 9 (CA9) (UniProt Q16790 38-459)
# Assay: cell-based or functional assay
binder,measurement,value
"BTE (canonical CA9 x CD3 bispecific T cell engager; G37_DBiTE, Non-HLV) (bispecific antibody) QSVLTQPPSVSGAPGQRVTISCTGSSSNIGAGYDVHWYQHLPGTAPKLLIYGNSNRPSGVPDRFSGSKSGTSASLAITGLQAEDETDYFCQSYDSSLSAWVFGGGTKVTVLGGGGSGGGGSGGGGSQVQLVQSGGGVVQPGGSLRLSCAASGFPFSSYAMSWVRQAPGKGLEWVSAISANGGTTYYADSVKGRFTISRDNSKNTLYLQMNSLRAEDTAVYYCANNGNYRGAFDIWGQGTMVTVSSGGGGSEVQLVESGGGLVQPGGSLRLSCAASGYSFTGYTMNWVRQAPGKGLEWVALINPYKGVSTYNQKFKDRFTISVDKSKNTAYLQMNSLRAEDTAVYYCARSGYYGDSDWYFDVWGQGTLVTVSSGGGGSGGGGSGGGGSDIQMTQSPSSLSASVGDRVTITCRASQDIRNYLNWYQQKPGKAPKLLIYYTSRLESGVPSRFSGSGSGTDYTLTISSLQPEDFATYYCQQGNTLPWTFGQGTKVEIKSSHHHHHH","EC50 (pM), cell line 293T-CA9",13.2 pM
same,"EC50 (pM), cell line 786-O",82.5 pM
same,"EC50 (pM), cell line A-498",21.4 pM
same,"EC50 (pM), cell line ACHN-CA9",38.7 pM
same,"EC50 (pM), cell line SKRC-52",1.5 pM
